Results from patent publication US20200087364A1 (IMMATICS BIOTECHNOLOGIES, published 2020).

The binders below were run against T1, HLA-A*01:01 (human) (assay: UV-ligand exchange, anti-b2m ELISA).
T1 construct: MHC class I monomer first loaded with a UV-sensitive peptide (not identified) that is cleaved by UV irradiation and exchanged for the tested peptide; captured on streptavidin plates, detected with anti-β2m; also called peptide-receptive MHC molecules
Procedure, shortened: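 Peptide–MHC complexes made by UV-ligand exchange of a UV-cleavable peptide; exchange yield measured by ELISA on streptavidin-coated plates, samples diluted 100-fold, 1 h 37 °C. Detection with 2 ug/ml HRP anti-β2m, TMB, A450; refolded HLA-A*02:01/MLA-001 monomer standards 15-500 ng/ml.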

Row | Binder | peptide exchange yield
1 | NVKHFLNDLY | 50 to 75%
2 | KAFQELGVRY | 20 to 50%
3 | HMLAAMAY | 20 to 50%
4 | ELAAGQVVY | 10 to 20%
5 | FLFNDALLY | > 75%
6 | GQFTGTAGACRY | 20 to 50%
7 | YPDLSELLM | 20 to 50%
8 | MMEMEGMY | 50 to 75%
9 | TEEKFVSY | 10 to 20%
10 | DLKIDLAAQY | 20 to 50%
11 | MTEGSTVNTEY | > 75%
12 | RLDEAMISY | 50 to 75%
13 | AMMQEAQLAY | 50 to 75%
14 | VLKIELETY | 50 to 75%
15 | FYLSTPENYHY | 50 to 75%
16 | KFDVINHYF | 20 to 50%
17 | VAEPPVVCSY | 20 to 50%
18 | EVDSVALSL | 20 to 50%
19 | VLDFAPPGASAY | > 75%
20 | EDLLEVLDMY | 20 to 50%

Row | Binder | peptide exchange yield
21 | TLEDLDNLYNY | 50 to 75%
22 | HAFESNNFIY | 20 to 50%
23 | YMTSMALNY | 50 to 75%
24 | GQRLDEAMISY | 50 to 75%
25 | ASDDFRSKY | 50 to 75%
26 | ATDMEGNLNY | 50 to 75%
27 | PPEANSLQGALY | 20 to 50%
28 | ESQTCASDY | 50 to 75%
29 | TVTDGTHTDFY | 20 to 50%
30 | VTTDKPRAY | 20 to 50%
31 | GFGGLSSQGVYY | 50 to 75%
32 | YRDPVFVSL | 20 to 50%
33 | AILHHLYFY | 10 to 20%
34 | VSDHLQAGMLGQY | 50 to 75%
35 | QAMPSWPTAAY | 20 to 50%
36 | DCMDTEGSYM | 20 to 50%
37 | YTSHEDIGY | > 75%
38 | VTDGINPLI | 20 to 50%
39 | RPSSVLTIY | 50 to 75%
40 | VLPHHSEGACVY | 50 to 75%

Further lines, results first:

Row | peptide exchange yield | Binder
41 | 50 to 75% | PSEVPVDSHYY
42 | 20 to 50% | APDEVVALL
43 | 20 to 50% | ETILVSSSY
44 | 20 to 50% | CGPNEINHFY
45 | 50 to 75% | IPQDECLRY
46 | 20 to 50% | YTCEECGQAF
47 | 50 to 75% | DTDDRELRY
48 | 50 to 75% | VTDGTHTDFY
49 | > 75% | TSDVTGSLTY
50 | 20 to 50% | TCSHTFVYY
51 | 20 to 50% | WELDSLEY
52 | 50 to 75% | YADIHGDLL
53 | 20 to 50% | KSFETTVRY
54 | > 75% | KSEMNVNMKY
55 | 50 to 75% | ENSIEDLQY
56 | 50 to 75% | KPTEDSANVY

Row | peptide exchange yield | Binder
57 | > 75% | LTDSFLLRF
58 | 50 to 75% | ESDEMENLLTY
59 | > 75% | PSEVPVDSHY
60 | 20 to 50% | LSDIDSRYI
61 | 20 to 50% | FGTTPAAEYF
62 | 50 to 75% | VSINPNSGDIY
63 | > 75% | YADLLIYTY
64 | 20 to 50% | LPAPGFLFY
65 | 50 to 75% | EVDRNLIQY
66 | 20 to 50% | FSENLIYTYI
67 | 50 to 75% | IVADDTVY
68 | > 75% | TTEMVSNESVDY
69 | 50 to 75% | LMTVLLKY
70 | 50 to 75% | QITSFASGTSY
71 | 20 to 50% | AATVKSDIY
72 | 50 to 75% | LPSPAATIWDY
